Measurements from publication PMC2112147.

Key:
[1] = target: rabbit skeletal muscle actin (rabbit) (UniProt P68135); assay: co-sedimentation; details: scale: G-actin units per actinogelin dimeric unit
[2] = target: actinogelin (mouse (endogenous in Ehrlich tumor cells)) (UniProt Q7TPR4); assay: AUC
[3] = target: actinogelin (mouse (endogenous in Ehrlich tumor cells)) (UniProt Q7TPR4); assay: cross-linking

Chain of actinogelin (Q7TPR4 whole entry): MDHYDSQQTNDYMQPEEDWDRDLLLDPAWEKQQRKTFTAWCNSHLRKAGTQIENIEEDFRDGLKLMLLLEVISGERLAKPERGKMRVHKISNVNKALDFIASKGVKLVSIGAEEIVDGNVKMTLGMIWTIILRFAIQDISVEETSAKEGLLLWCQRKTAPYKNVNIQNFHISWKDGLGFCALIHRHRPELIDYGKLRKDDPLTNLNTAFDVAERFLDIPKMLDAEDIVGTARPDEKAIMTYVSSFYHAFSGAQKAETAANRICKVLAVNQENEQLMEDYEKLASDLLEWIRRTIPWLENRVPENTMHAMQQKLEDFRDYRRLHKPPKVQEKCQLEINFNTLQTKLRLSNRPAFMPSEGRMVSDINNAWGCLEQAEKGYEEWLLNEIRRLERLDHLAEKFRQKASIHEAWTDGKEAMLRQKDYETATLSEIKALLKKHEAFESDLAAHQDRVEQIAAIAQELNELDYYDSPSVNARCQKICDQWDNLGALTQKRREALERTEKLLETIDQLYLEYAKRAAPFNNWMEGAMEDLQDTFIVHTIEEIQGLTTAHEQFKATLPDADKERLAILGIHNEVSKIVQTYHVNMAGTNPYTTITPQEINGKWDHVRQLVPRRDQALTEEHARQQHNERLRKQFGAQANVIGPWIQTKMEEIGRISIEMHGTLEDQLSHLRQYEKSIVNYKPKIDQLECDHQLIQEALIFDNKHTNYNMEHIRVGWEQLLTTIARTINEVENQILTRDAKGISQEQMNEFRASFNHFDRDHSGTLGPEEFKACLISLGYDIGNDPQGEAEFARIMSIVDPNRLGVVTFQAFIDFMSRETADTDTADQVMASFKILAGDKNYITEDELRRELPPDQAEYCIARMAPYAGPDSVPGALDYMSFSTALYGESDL

stoichiometry N [1]: 10 to 12
stoichiometry N [2]: 2 subunits
stoichiometry N [3]: 2 subunits
Substance: actinogelin (from UniProt Q7TPR4 1-892) (natural protein)
